Results taken from patent US20250230254A1 (Janssen / Centocor, published 2025).

B1: KL2B870 (KL2B30 in hIgG1-RE) (antibody)
heavy: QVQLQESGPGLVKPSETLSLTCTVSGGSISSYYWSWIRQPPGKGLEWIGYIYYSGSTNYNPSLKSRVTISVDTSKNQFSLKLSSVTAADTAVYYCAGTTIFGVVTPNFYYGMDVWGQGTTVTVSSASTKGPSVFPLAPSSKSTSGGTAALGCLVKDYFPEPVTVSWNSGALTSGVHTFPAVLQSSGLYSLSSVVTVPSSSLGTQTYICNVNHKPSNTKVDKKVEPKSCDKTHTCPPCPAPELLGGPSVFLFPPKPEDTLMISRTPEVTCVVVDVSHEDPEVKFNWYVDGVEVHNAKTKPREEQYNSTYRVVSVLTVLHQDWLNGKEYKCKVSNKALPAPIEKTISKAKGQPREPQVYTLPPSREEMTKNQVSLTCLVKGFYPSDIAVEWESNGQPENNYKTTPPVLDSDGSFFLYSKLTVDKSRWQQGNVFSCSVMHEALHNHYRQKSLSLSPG
light: DIQMTQSPSFLSASVGDRVTITCRASQGISSYLAWYQQKPGKAPKFLIYAASTLQSGVPSRFSGSGSGTEFTLTISSLQPEDFATYYCQQLNSYPLTFGGGTKVEIKRTVAAPSVFIFPPSDEQLKSGTASVVCLLNNFYPREAKVQWKVDNALQSGNSQESVTEQDSKDSTYSLSSTLTLSKADYEKHKVYACEVTHQGLSSPVTKSFNRGEC
B2: KL2B872.CLF (antibody, human IgG1, kappa)
heavy: not shown
light: B1 light
modifications: low fucosylation of the Fc oligosaccharide (less than 10% fucosylation)
B3: KL2B870.CLF (antibody, human IgG1, kappa)
heavy: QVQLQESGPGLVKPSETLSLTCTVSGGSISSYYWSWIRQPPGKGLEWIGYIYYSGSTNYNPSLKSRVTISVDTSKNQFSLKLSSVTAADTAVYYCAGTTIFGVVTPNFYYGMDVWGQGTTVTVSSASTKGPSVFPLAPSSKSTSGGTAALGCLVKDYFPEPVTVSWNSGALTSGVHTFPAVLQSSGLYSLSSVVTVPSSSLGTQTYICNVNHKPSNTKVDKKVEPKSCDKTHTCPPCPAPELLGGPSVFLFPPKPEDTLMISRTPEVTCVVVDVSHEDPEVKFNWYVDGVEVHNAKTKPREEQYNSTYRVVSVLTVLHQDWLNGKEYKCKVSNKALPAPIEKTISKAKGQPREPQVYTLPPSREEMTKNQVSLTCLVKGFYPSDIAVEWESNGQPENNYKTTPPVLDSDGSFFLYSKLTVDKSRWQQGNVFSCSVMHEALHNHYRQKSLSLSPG
light: B1 light
modifications: low fucosylation of the Fc oligosaccharide (less than 10% fucosylation)

target: T1, KLK2 (UniProt P20151 25-261, limits assumed); assay: cell-based or functional assay
T1 sequence (P20151 25-261 limits assumed): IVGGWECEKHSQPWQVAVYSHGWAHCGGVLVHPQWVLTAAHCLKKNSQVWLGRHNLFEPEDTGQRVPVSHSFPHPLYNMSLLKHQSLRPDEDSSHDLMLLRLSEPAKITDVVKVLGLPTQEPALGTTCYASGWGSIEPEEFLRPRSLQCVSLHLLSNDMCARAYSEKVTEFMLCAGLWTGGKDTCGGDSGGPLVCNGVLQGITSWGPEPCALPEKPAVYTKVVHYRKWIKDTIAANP

Row | Binder | ADCC killing EC50 (M), PBMC effector cells on VCaP cells, 48 hours [M]
1 | B1 | 1e-09
2 | B2 | 4.12e-10
3 | B3 | 3.54e-10

target: T1, KLK2; assay: cell-based or functional assay; remark: another data set of the same source

Row | Binder | ADCC activity, percent cell killing of VCaP cells by PBMC [%]
4 | B1 | ~73
5 | B2 | ~85
6 | B3 | ~89
